Experimental data published in the supplement of paper PMC9170038.

System: MS2 coat protein
Assay: apparent KD of MS2 coat protein; designed switch direction (-1 OFF switch, 1 ON switch): -1; higher = weaker reporter binding
Outline: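 Apparent KD, taken as the median over clusters for each design, was obtained by curve-fitting normalised cluster fluorescence. Designed RNA switches had been transcribed on Illumina chips by stalled E. coli RNA polymerase and titrated with SNAP-549-labelled MS2 coat protein, doubling from 0.7 or 1.5 nM to 3 µM.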

[1] = input ligand: microRNA oligo, concentration not stated
[2] = Eterna round: R95, input ligand: FMN 200 uM
[3] = Eterna round: R95, input ligand: microRNA oligo, concentration not stated
[4] = Eterna round: R95, input ligand: none

Row | Sequence | apparent KD of MS2 coat protein (input ligand: FMN 200 uM) | apparent KD of MS2 coat protein [1] | apparent KD of MS2 coat protein (input ligand: none) | apparent KD of MS2 coat protein [2] | apparent KD of MS2 coat protein [3] | apparent KD of MS2 coat protein [4]
1 | GCAGCAUAGUAUACUUACUGUUACAUGAGGAUCACCCAUGUACAGGAUAUGGUCUGGAUUACAGGCCAGAAGGGUACAAGCUGC [Eli exng3 - 024] (Eterna round: R96, puzzle: Exclusion NG 3) | 10.3 nM | 8.12 nM | 11.7 nM | – | – | –
2 | AGUAACCGUCACGAAAGUGAUGGUUACACAAGUGUAAUAACAUGAGGAUCACCCAUGUCCUCAUUUGCUCGUCUUAU [Sensor 3 - 36] (puzzle: Sensor v3, turn-off variant 2) | – | – | – | 41.9 nM | 121 nM | 49.4 nM
3 | GGAUUUACUGAGGAUAUUGCAUCACCCGAUUGAUAAGAAGGCAGAACAUGAGGAUCACCCAUGUGGGUAGUCAA [Bingo-Bango-2] (Eterna round: R97, puzzle: Exclusion 6) | 80.2 nM | – | 39.3 nM | – | – | –
4 | GUUCGUGGGCAAGGAUAUCCUACGCUGUUCUGGUUCGUGUCUGUCACAUGAGGAUCACCCAUGUGGGAGAAGGUGCAUUUGGGU [Design 57] (Eterna round: R96, puzzle: Exclusion NG 2) | 18.9 nM | 15.1 nM | 20.1 nM | – | – | –
5 | UUGUACAUAGGAUAUAGUUGUUUGUACAUGAGGAUCACCCAUGUUAUGUAUGUUUUGCUUCUAGAAGGAUGUUGUU [JR_E5_Sub004] (puzzle: Exclusion 5) | – | – | – | – | 28 nM | –
6 | UUAUUAUAUGUAGGAUAUGCAUAUUAUUAUUAUGCAGAAGGACAUGAGGAUCACCCAUGUAUAUUAUUAUUAUAUAUUAUGUAU [Title] (Eterna round: R96, puzzle: Exclusion NG 1) | – | 27.5 nM | – | – | – | –
7 | GCCGAUUAAGUGAGGAUAUACCUAUGGAUACAUAGGUAGAAGGCACAUGAGGAUCACCCAUGUAUCCUAUCGGC [Eli bmx4 4.27] (Eterna round: R97, puzzle: Brourd's mod of Exclusion 4) | 517 nM | – | 59.8 nM | – | – | –
8 | UGAUCUAGGCGAGGAUAUACAUGAGGAUCACCCAUGUAAACGUGACAUGAAAACAUGUCACGAAUGUAGAAGGCGCCUAGAUCU [JL ENG2 3.54] (Eterna round: R96, puzzle: Exclusion NG 2) | 21.7 nM | 13.2 nM | 13.3 nM | – | – | –
9 | GGCUAGUGAGGAUAUACGUGCAGUCCUCAGUCGCCAGUCGGACAUGAGGAUCACCCAUGUAGAAGGUAUCGGCA [Beesraat] (puzzle: Exclusion 2) | – | – | – | – | 30.2 nM | –
10 | GAUAGAGAGCAGGAUAUCUUGGGUAAGUAUCGUAGAGAAGGGCUCACAUGAGGAUCACCCAUGUGGUCCUAGAU [JL Dibiri mod 03] (puzzle: Exclusion 6) | – | – | – | – | 11.5 nM | –
11 | ACUGGAGCAGGAUAUAUAUGACGUGCUUCGGCACGGUGAGUACAUGAGGAUCACCCAUGUAGAAGGGCUCCAGU [Exclusion 2 (Mod2 of Brourd's E2/9-D2)] (Eterna round: R97, puzzle: Exclusion 2) | 88.4 nM | – | 23.4 nM | – | – | –
12 | CUGUACUGAGGAUAUACAUGAGGAUCACCCAUGUGUUCCAGCUAGGAAACUAGCAAAAGUAGAAGGCAGUACAG [Mat - Exclusion 3 - Eli Mod - D65] (Eterna round: R97, puzzle: Exclusion 3) | 332 nM | – | 30.5 nM | – | – | –
13 | UGUUGUCGCGCAGGAUAUGGCCAACAGGCCCUAGGAUAUCGGAAACGAGAAGGAGCGCCAACAGGCGAGAAGGGCGGGACAACU [pwkr exNG2 2xF7 2xFMN.18] (Eterna round: R96, puzzle: Exclusion NG 2) | 85.9 nM | 912 nM | 995 nM | – | – | –
14 | AAAUCCGCUGAGGAUAUUAUGAGUGAGAGCUCAUGAGAAGGCGGUACAUGAGGAUCACCCAUGUCUAUGGGCAA [Ex-6 Malc#26] (puzzle: Exclusion 6) | – | – | – | – | 329 nM | –
15 | UUAGAUAGGUCAGGAUAUCGAUGAUUGAAUUGUAUGAUUUACAUGAGGAUCACCCAUGUUUUGUACGAGAAGGGACGUUAGUUU [JR_ExcNG2_Sub019] (Eterna round: R96, puzzle: Exclusion NG 2) | 25.3 nM | 26.1 nM | 33.5 nM | – | – | –
16 | CAGGAUAGAGGAUAUACGUAGAUACAGAUUCAUGUAAUCCUACAUGAGGAUCACCCAUGUAGAAGGCUAUCCUG [Fiskers Ex 2 - 18] (puzzle: Exclusion 2) | – | – | – | – | 17.6 nM | –
17 | UUUUUUGUUGUGAGGAUAUCGUUGUUGUUGUGGAUCGAGAAGGCACAUGAGGAUCACCCAUGUUUGUUGUGGUU [JR_BMOE4_Sub086] (Eterna round: R96, puzzle: Brourd's mod of Exclusion 4) | 272 nM | 81.2 nM | 109 nM | – | – | –

Row | Sequence | apparent KD of MS2 coat protein (input ligand: FMN 200 uM) | apparent KD of MS2 coat protein [1] | apparent KD of MS2 coat protein (input ligand: none) | apparent KD of MS2 coat protein [2] | apparent KD of MS2 coat protein [3] | apparent KD of MS2 coat protein [4]
18 | ACUUAUAGAGGAUAUACAGUUAAUUACAUGAGGAUCACCCAUGUUCUUCAAUGUAUAUAAGUAGAAGGCUAAGGAA [Ex5 Malc#5 mod] (Eterna round: R97, puzzle: Exclusion 5) | 64.3 nM | – | 16.7 nM | – | – | –
19 | AGCGUGGAGACAGGAUAUGAGAAUAGAUAGAACUCAGAAGGGUCACAUGAGGAUCACCCAUGUAAAGUCUUGAGGAUGAGUGGU [Prohibition 5 - Jieux - Exclusion NG 1] (Eterna round: R96, puzzle: Exclusion NG 1) | 119 nM | 29 nM | 51.1 nM | – | – | –
20 | CCAUGUUAGCAGGAUAUGCUAUUAAUCUUUUAUGCAGAAGGGCUUACAUGAGGAUCACCCAUGUAUUAAGUCAA [JR_E6_Sub077] (puzzle: Exclusion 6) | – | – | – | – | 13.2 nM | –
21 | CGAUGCUCGAGUCGACAUGAGGAUCACCCAUGUACAGUUAGUGAGGAUAUCGGAGACACAUAGUAUGAGAAGGCGCGAACGUGA [Ex NG3 #16] (Eterna round: R96, puzzle: Exclusion NG 3) | 76.7 nM | 41.4 nM | 40.3 nM | – | – | –
22 | AGAUGUAGAUACCGAUCCUACAUGAGGAUCACCCAUGUAGCUAGACGUGCGGGCGGCGCUCGUCGGACUACCAGUAG [salish99_TOv1_r3_095] (puzzle: Sensor v3, turn-off variant 1) | – | – | – | 163 nM | 155 nM | 232 nM
23 | UUUAAUUUUUUUUUUUUACAAGCUUUUUGCUCGUCUUAUACAUGAGGAUCACCCAUGUAGGUGAAGGAUAAAUUAUC [JMF 27] (puzzle: Sensor v3, turn-off variant 2) | – | – | – | 25.9 nM | 66.4 nM | 35.9 nM
24 | AAUAACAAGCCGAUCCUCUACAUGAGGAUCACCCAUGUGUUCGUCUUGUAAAGUACUAUCACGAAAGUGAUAGUACA (Eterna round: R97, puzzle: Sensor, turn-off variant 1) | 209 nM | – | 244 nM | – | – | –
25 | ACAUGAGGAUCACCCAUGUAAACAUAAUGGCUCAUGUAGAGUCAGGAUAUGCGUGGCGAACAAACGCAGAAGGGACAAGACUGG [Deportation 26 - Jieux - Exclusion NG 3] (Eterna round: R96, puzzle: Exclusion NG 3) | 28.1 nM | 30.8 nM | 29.6 nM | – | – | –
26 | UGCCUAUGAGGAUAUACGUAGAAAUAGAUUCAUGUAAAACUACAUGAGGAUCACCCAUGUAGAAGGCAUGGGCU [Mat - Exclusion 2 - JL Mod - D49] (Eterna round: R97, puzzle: Exclusion 2) | 27.5 nM | – | 16 nM | – | – | –
27 | UACAUGAGGAUCACCCAUGUUUUGUCGUGUAUGGUAUUUAUCUAGGAUAUCAUUAUAUUUAGUUAUGAGAAGGAGAAUAUUAAU [JMF's solution 82] (Eterna round: R96, puzzle: Exclusion NG 3) | 28.1 nM | 23.6 nM | 44.6 nM | – | – | –
28 | GUUAACGUAGGAUAUUAGUACAUGCACAUGAGGAUCACCCAUGUUUAGUGGGUCUAGGAAUAAGAAGGGCGAUGAA [EX5 #22] (Eterna round: R97, puzzle: Exclusion 5) | 472 nM | – | 567 nM | – | – | –
29 | GUUCUGUCAGGAUAUCAAUCCGCCUGUGAUACGCAGGCGGCUGAGAAGGGACAUGAGGAUCACCCAUGUAAAGA [jl-ex4-4.23 ViennaUCT mod] (Eterna round: R97, puzzle: Exclusion 4) | 74 nM | – | 41.2 nM | – | – | –
30 | ACAUGUCAUUGAGGAUAUCGCACACAUGAGGAUCACCCAUGUAAACGGAUGCUCUUUCGUGGGUUCGAGAAGGCGAUGUACAUU [Ex NG2 #96] (Eterna round: R96, puzzle: Exclusion NG 2) | 136 nM | 49 nM | 88 nM | – | – | –
31 | AGUACUAACACGAGAGUGUUAGUACUAUAAGCUUGUGAAACAUGAGGAUCACCCAUGUCCUCAUAAGCUCGUCUUAU [Mat - Sensor v3 - Turn-off var 2 - D103] (Eterna round: R96, puzzle: Sensor v3, turn-off variant 2) | 13.8 nM | 452 nM | 16.8 nM | – | – | –
32 | ACAAGCUUUUUGUUCGUCUUAUAAUAUUCAAUAAAGAUAACAUGAGGAUCACCCAUGUAACAAAGACGGACUCAUGU [Sesor Array 16 - Jieux - Sensor v3, turn-off variant 2] (puzzle: Sensor v3, turn-off variant 2) | – | – | – | 16.5 nM | 267 nM | 12.4 nM
33 | ACAUGAGGAUCACCCAUGUGAAAAGAAUGGCUGACACAGAGAUAGGAUAUAGGUGCAUAUCUAACCUAGAAGGGUCAUGACUGG [Deportation 77 - Jieux - Exclusion NG 3] (Eterna round: R96, puzzle: Exclusion NG 3) | 23.5 nM | 22.3 nM | 33 nM | – | – | –
